Data on 1 substance can be found in publication PMC10889886.

The assay deals with HCoV-OC43 Spike antigen (HCoV-OC43) (UniProt P36334). In words: SEC-MALS. On the technique in general: Size exclusion chromatography separates by hydrodynamic size, large species first.

As to “HCoV-OC43 Spike antigen (from UniProt P36334 14-1353) (natural protein)”, the stoichiometry N turned out to be 3.

Usually stoichiometry N stands for the number of molecules, sites or subunits per partner or assembly.
